Test results from paper PMC12756933, “Evidence for biomolecular condensates formed by the Escherichia coli MatP protein in spatiotemporal regulation of the bacterial cell division cycle” (International journal of biological macromolecules, 2025).
Where “and” joins values, the source holds several entries; their conditions need not be identical. Equal values may be shown once.

B3: FtsZ (natural protein, E. coli, UniProt P0A9A6 1-383, looked up)
chain: MFEPMELTNDAVIKVIGVGGGGGNAVEHMVRERIEGVEFFAVNTDAQALRKTAVGQTIQIGSGITKGLGAGANPEVGRNAADEDRDALRAALEGADMVFIAAGMGGGTGTGAAPVVAEVAKDLGILTVAVVTKPFNFEGKKRMAFAEQGITELSKHVDSLITIPNDKLLKVLGRGISLLDAFGAANDVLKGAVQGIAELITRPGLMNVDFADVRTVMSEMGYAMMGSGVASGEDRAEEAAEMAISSPLLEDIDLSGARGVLVNITAGFDLRLDEFETVGNTIRAFASDNATVVIGTSLDPDMNDELRVTVVATGIGMDKRPEITLVTNKQVQQPVMDRYQQHGMAPLTQEQKPVAKVVNDNAPQTAKEPDYLDIPAFLRKQAD
modifications: Alexa Fluor 488 or Alexa Fluor 647 at amino groups, on the tracer fraction only (<1 mol of dye per mole of protein)
notes: FtsZ, E. coli; Oligomers of variable size without GTP, polymers with GTP; also called FtsZ-Alexa 488; FtsZ-Alexa 647

Key:
[1] = target: T1, FtsZ (E. coli, UniProt P0A9A6 1-383); experiment: AUC; multi-signal sedimentation velocity (MSSV), 20 uM FtsZ and 7 uM MatP, absorbance at 250 and 280 nm, 48,000 rpm; dilute solution buffer (50 mM Tris-HCl pH 7.5, 5 mM MgCl2) with 100 mM KCl, no GTP; conditions: both partners purified
T1 construct: FtsZ, Escherichia coli cell division protein; oligomers of variable size without GTP, polymers with GTP; also called FtsZ-GTP; GTP-triggered FtsZ polymers
T1 sequence (looked up): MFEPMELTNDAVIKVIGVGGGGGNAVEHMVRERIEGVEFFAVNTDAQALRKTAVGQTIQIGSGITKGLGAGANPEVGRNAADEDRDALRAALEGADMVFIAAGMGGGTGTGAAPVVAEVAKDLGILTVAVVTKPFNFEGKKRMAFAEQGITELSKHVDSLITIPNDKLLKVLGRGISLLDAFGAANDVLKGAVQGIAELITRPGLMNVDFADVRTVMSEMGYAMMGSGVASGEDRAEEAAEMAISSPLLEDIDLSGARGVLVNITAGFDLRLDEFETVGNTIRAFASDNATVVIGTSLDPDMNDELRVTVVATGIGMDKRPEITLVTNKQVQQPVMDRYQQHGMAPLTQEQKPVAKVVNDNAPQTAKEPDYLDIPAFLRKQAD

[2] = target: the molecule itself; experiment: fluorescence correlation spectroscopy; dilute solution buffer: 50 mM Tris-HCl pH 7.5, 5 mM MgCl2, 100 mM KCl, 0.05 g/L BSA; 10 uM MatP with 10 nM MatP-Alexa 488 as tracer, alone or with 20 uM unlabelled FtsZ, no GTP; at 300 mM KCl the profiles of MatP and FtsZ/MatP overlapped
[3] = target: B3; experiment: fluorescence polarisation; anisotropy titration of MatP (50 nM MatP-Alexa 488, 96 nM total MatP) with unlabelled FtsZ; 50 mM Tris-HCl pH 7.5, 5 mM MgCl2, 100 mM KCl; simple 1:1 model, apparent Kd = FtsZ concentration at half of the maximum signal; conditions: both partners purified
[4] = target: the molecule itself; experiment: AUC; sedimentation velocity, dilute solution buffer with 100 mM KCl, GTP and GTP regeneration system, Rayleigh interference; FtsZ polymers with or without MatP

B1: MatP (natural protein, E. coli, UniProt P0A8N0 1-150, looked up)
chain: MKYQQLENLESGWKWKYLVKKHREGELITRYIEASAAQEAVDVLLSLENEPVLVNGWIDKHMNPELVNRMKQTIRARRKRHFNAEHQHTRKKSIDLEFIVWQRLAGLAQRRGKTLSETIVQLIEDAENKEKYANKMSSLKQDLQALLGKE
notes: MatP, Escherichia coli, untagged; sediments as a dimer (2.5 S); also called Ter macrodomain organizer MatP; MatP-Alexa 488 (labelled tracer)
B1: binds [1].

B2: MatP (natural protein, E. coli, UniProt P0A8N0 1-150, looked up)
chain: MKYQQLENLESGWKWKYLVKKHREGELITRYIEASAAQEAVDVLLSLENEPVLVNGWIDKHMNPELVNRMKQTIRARRKRHFNAEHQHTRKKSIDLEFIVWQRLAGLAQRRGKTLSETIVQLIEDAENKEKYANKMSSLKQDLQALLGKE
modifications: Alexa Fluor 488 or Alexa Fluor 647 at amino groups, on the tracer fraction only (<1 mol of dye per mole of protein)
notes: MatP, E. coli, untagged; Labelled MatP was used as a tracer mixed with unlabelled MatP; Sediments as a dimer (2.5 S); also called Ter macrodomain organizer MatP; MatP-Alexa 488
B2 was tested, and the “stoichiometry N” value [2] was 2 and the Kd [3] was 8 µM and 18 µM.

B3: binds [4].
